In paper PMC11933459 (Nature Communications, 2025):
Where a chain is given by its changes, count along the chain named. Numbers in names are those of the source.

B1: Full-length human XPR1 (wild type), purified, tags removed (natural protein, UniProt Q9UBH6 1-696, looked up)
chain: MKFAEHLSAHITPEWRKQYIQYEAFKDMLYSAQDQAPSVEVTDEDTVKRYFAKFEEKFFQTCEKELAKINTFYSEKLAEAQRRFATLQNELQSSLDAQKESTGVTTLRQRRKPVFHLSHEERVQHRNIKDLKLAFSEFYLSLILLQNYQNLNFTGFRKILKKHDKILETSRGADWRVAHVEVAPFYTCKKINQLISETEAVVTNELEDGDRQKAMKRLRVPPLGAAQPAPAWTTFRVGLFCGIFIVLNITLVLAAVFKLETDRSIWPLIRIYRGGFLLIEFLFLLGINTYGWRQAGVNHVLIFELNPRSNLSHQHLFEIAGFLGILWCLSLLACFFAPISVIPTYVYPLALYGFMVFFLINPTKTFYYKSRFWLLKLLFRVFTAPFHKVGFADFWLADQLNSLSVILMDLEYMICFYSLELKWDESKGLLPNNSEESGICHKYTYGVRAIVQCIPAWLRFIQCLRRYRDTKRAFPHLVNAGKYSTTFFMVTFAALYSTHKERGHSDTMVFFYLWIVFYIISSCYTLIWDLKMDWGLFDKNAGENTFLREEIVYPQKAYYYCAIIEDVILRFAWTIQISITSTTLLPHSGDIIATVFAPLEVFRRFVWNFFRLENEHLNNCGEFRAVRDISVAPLNADDQTLLEQMMDQDDGVRNRQKNRSWKYNQSISLRRPRLASQSKARDTKVLIEDTDDEANT
B2: XPR1-E622A/F623A mutant (full-length human XPR1), purified, tags removed (natural protein, UniProt Q9UBH6 1-696, looked up)
chain: B1 chain with E622A, F623A

Key:
cryo-EM structure [1] = molecular target: the molecule itself; experiment: cryo-EM structure
cryo-EM structure [2] = molecular target: the molecule itself; experiment: cryo-EM structure; remark: listed apart in the source

Row | Protein | stoichiometry N (cryo-EM structure [1]) | binding result (cryo-EM structure [2])
1 | B1 | 2 | –
2 | B2 | – | binds
